Measured values as given in US20240116985A1 (published 2024).
Each block holds one binder with its values, some of them ahead of it. Starred links: 1 amine or outer side, 2 acyl side, 3 side chain; linkers in the order of their positions; H or OH if unused. Positions of bridges follow the written chain, without caps; N, C: chain ends. Non-standard residues stand in square brackets, D forms with d. Primed or numbered codes have the meaning given here. (4AcMePip)GA = (S)-2-amino-3-(N-(carboxymethyl)-1-methylpiperidine-4-carboxamido)propanoic acid, CN1CCC(C(=O)N(CC(=O)[*:3])C[C@H](N[*:1])C(=O)[*:2])CC1; PyrS2″ = (S)-3-amino-1-((pent-4-en-1-yloxy)carbonyl)pyrrolidine-3-carboxylic acid (stapling residue), C=CCCCOC(=O)N1CC[C@@](N[*:1])(C(=O)[*:2])C1; (NdiMeButC)GA = (S)-2-amino-3-(N-(carboxymethyl)-4-(dimethylamino)butanamido)propanoic acid, CN(C)CCCC(=O)N(CC(=O)[*:3])C[C@H](N[*:1])C(=O)[*:2]; (Me2NPr)GA = (S)-2-amino-3-(N-(carboxymethyl)-3-(dimethylamino)propanamido)propanoic acid, CN(C)CCC(=O)N(CC(=O)[*:3])C[C@H](N[*:1])C(=O)[*:2]; B5(4) = 2,2-bis(4-pentenyl)glycine = 2-amino-2-(pent-4-en-1-yl)hept-6-enoic acid (stitching residue), C=CCCCC(CCCC=C)(N[*:1])C(=O)[*:2]; (EtSSpy)GluE = (S)-2-amino-5-oxo-5-(2-(pyridin-2-yldisulfaneyl)ethoxy)pentanoic acid, O=C(CC[C@H](N[*:1])C(=O)[*:2])OCCSSc1ccccn1; PyrS2 = (S)-3-amino-1-((pent-4-en-1-yloxy)carbonyl)pyrrolidine-3-carboxylic acid, C=CCCCOC(=O)N1CC[C@@](N[*:1])(C(=O)[*:2])C1; (EtSSPh)GluE = (S)-2-amino-5-oxo-5-(2-(phenyldisulfaneyl)ethoxy)pentanoic acid, O=C(CC[C@H](N[*:1])C(=O)[*:2])OCCSSc1ccccc1; (EtSSPh)AspE = (S)-2-amino-4-oxo-4-(2-(phenyldisulfaneyl)ethoxy)butanoic acid, O=C(C[C@H](N[*:1])C(=O)[*:2])OCCSSc1ccccc1; (EtSSHex)AspE = (S)-2-amino-4-(2-(hexyldisulfaneyl)ethoxy)-4-oxobutanoic acid, CCCCCCSSCCOC(=O)C[C@H](N[*:1])C(=O)[*:2]; B5(22) = 2-amino-2-(pent-4-en-1-yl)hept-6-enoic acid (two alkene side chains), C=CCCCC(CCCC=C)(N[*:1])C(=O)[*:2]; B5(3) = 2,2-bis(4-pentenyl)glycine (stitching residue), C=CCCCC(CCCC=C)(N[*:1])C(=O)[*:2]; Phe(3-COOH) = N[C@@H](Cc1cccc(C(=O)O)c1)C(=O)O; 2F3MeF = Cc1cccc(C[C@H](N[*:1])C(=O)[*:2])c1F; Phe(3-Cl) = N[C@@H](Cc1cccc(Cl)c1)C(=O)O; Phe(4-Cl) = N[C@@H](Cc1ccc(Cl)cc1)C(=O)O; Bta = N[C@@H](Cc1csc2ccccc12)C(=O)O; αAllylPro = C=CC[C@@]1(C(=O)O)CCCN1; tBuAla = CC(C)(C)C[C@H](N)C(=O)O; 3Thi = N[C@@H](Cc1ccsc1)C(=O)O; PyrS2(4) = not defined here

Legend:
B-cat-Halo = biological target: T1, B-cat-Halo (UniProt P35222 1-781); assay: cell-based or functional assay
T1 sequence (looked up): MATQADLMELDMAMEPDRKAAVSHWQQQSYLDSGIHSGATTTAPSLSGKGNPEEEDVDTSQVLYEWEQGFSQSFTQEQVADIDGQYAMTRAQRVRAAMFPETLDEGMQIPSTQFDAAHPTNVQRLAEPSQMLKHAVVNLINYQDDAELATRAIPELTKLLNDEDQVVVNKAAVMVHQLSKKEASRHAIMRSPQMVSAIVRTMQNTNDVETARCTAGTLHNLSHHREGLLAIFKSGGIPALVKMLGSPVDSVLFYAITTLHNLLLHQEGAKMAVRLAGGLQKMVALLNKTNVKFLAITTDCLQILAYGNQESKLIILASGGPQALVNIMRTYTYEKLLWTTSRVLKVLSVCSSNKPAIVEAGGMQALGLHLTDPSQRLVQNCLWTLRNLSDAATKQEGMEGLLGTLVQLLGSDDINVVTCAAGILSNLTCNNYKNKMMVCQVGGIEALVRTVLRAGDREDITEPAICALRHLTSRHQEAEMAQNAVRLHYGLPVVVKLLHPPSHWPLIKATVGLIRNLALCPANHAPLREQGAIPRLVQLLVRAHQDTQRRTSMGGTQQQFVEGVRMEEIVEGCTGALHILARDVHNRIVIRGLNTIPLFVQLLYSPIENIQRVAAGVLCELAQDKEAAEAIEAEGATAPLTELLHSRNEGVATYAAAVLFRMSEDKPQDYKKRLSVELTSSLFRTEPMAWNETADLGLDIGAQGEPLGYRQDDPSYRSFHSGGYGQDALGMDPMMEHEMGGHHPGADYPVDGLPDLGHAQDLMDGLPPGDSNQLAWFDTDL

[1] = biological target: T2, B-cat-Halo (beta-catenin HaloTag NanoBRET construct expressed in HEK293 cells) (UniProt P35222 1-781); assay: cell-based or functional assay
T2 sequence (looked up): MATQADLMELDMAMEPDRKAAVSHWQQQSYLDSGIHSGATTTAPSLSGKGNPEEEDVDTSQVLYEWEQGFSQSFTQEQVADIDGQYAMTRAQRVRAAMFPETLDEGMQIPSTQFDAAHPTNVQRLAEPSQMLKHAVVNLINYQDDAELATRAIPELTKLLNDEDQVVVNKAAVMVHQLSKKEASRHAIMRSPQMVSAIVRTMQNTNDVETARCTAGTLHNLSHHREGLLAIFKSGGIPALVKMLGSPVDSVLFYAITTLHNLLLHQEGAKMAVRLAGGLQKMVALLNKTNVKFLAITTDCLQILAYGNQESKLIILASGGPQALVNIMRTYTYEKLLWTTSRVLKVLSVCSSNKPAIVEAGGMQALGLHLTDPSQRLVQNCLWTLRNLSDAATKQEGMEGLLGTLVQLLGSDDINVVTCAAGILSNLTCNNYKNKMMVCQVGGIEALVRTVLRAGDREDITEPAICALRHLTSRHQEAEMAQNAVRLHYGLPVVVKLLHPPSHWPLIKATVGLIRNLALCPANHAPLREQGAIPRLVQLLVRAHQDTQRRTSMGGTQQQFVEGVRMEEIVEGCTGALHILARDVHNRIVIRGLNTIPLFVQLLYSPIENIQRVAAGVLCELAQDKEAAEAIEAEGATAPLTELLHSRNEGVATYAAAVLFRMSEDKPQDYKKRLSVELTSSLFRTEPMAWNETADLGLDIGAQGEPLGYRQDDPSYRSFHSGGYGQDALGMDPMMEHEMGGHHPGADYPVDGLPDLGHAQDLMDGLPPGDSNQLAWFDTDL

Binder: Ac-[αAllylPro]D[tBuAla][B5(3)]D[Phe(3-COOH)]AAFL[PyrS2″][2F3MeF][Phe(4-Cl)]S-NH2 (staple 1-4, 4-11) [I-2222]
- NanoBRET Abs IC50 (B-cat-Halo): 11.7 µM

Binder: Ac-[αAllylPro]D[tBuAla][B5(4)]D[(EtSSpy)GluE]AAFL[PyrS2″][3Thi][Bta]Q-NH2 (staple 1-4, 4-11) [I-1951]
- NanoBRET Abs IC50 [1]: > 20 µM

Binder: Ac-[αAllylPro][(EtSSPh)AspE][tBuAla][B5(4)]DDAAFL[PyrS2″][3Thi][Bta]Q-NH2 (staple 1-4, 4-11; also: isomer composition, earlier eluting HPLC peak) [I-1952]
- NanoBRET Abs IC50 [1]: > 20 µM

Binder: Ac-[αAllylPro][(EtSSPh)AspE][tBuAla][B5(4)]DDAAFL[PyrS2″][3Thi][Bta]Q-NH2 (staple 1-4, 4-11; also: isomer composition, later eluting HPLC peak) [I-1953]
- NanoBRET Abs IC50 [1]: > 20 µM

Binder: Ac-[αAllylPro]D[tBuAla][B5(4)][(EtSSPh)AspE]DAAFL[PyrS2″][3Thi][Bta]Q-NH2 (staple 1-4, 4-11; also: isomer composition, earlier eluting HPLC peak) [I-1954]
- NanoBRET Abs IC50 [1]: > 20 µM

Binder: Ac-[αAllylPro]D[tBuAla][B5(4)]D[(EtSSPh)GluE]AAFL[PyrS2″][3Thi][Bta]Q-NH2 (staple 1-4, 4-11; also: isomer composition, later eluting HPLC peak) [I-1958]
- NanoBRET Abs IC50 [1]: > 20 µM

Binder: Ac-[αAllylPro][(EtSSHex)AspE][tBuAla][B5(4)]DDAAFL[PyrS2″][3Thi][Bta]Q-NH2 (staple 1-4, 4-11; also: isomer composition, earlier eluting HPLC peak) [I-1959]
- NanoBRET Abs IC50 [1]: > 20 µM

Binder: Ac-[αAllylPro][(EtSSHex)AspE][tBuAla][B5(4)]DDAAFL[PyrS2″][3Thi][Bta]Q-NH2 (staple 1-4, 4-11) [I-1960]
- NanoBRET Abs IC50 [1]: 20.4 µM

Binder: Ac-[αAllylPro]D[tBuAla][B5(4)][(EtSSHex)AspE]DAAFL[PyrS2″][3Thi][Bta]Q-NH2 (staple 1-4, 4-11) [I-1961]
- NanoBRET Abs IC50 [1]: > 20 µM

Next, values leading:

- NanoBRET Abs IC50 (B-cat-Halo): 9 µM
Binder: Ac-[αAllylPro]D[tBuAla][B5(3)]D[Phe(3-COOH)]QAFL[PyrS2″][2F3MeF][Phe(4-Cl)]A-NH2 (staple 1-4, 4-11) [I-2223]

- NanoBRET Abs IC50 (B-cat-Halo): 14.2 µM
Binder: Ac-[αAllylPro]D[tBuAla][B5(3)]D[Phe(3-COOH)]AAFL[PyrS2″][3Thi][Phe(3-Cl)]Q-NH2 (staple 1-4, 4-11) [I-2224]

- NanoBRET Abs IC50 (B-cat-Halo): 7.8 µM
Binder: Ac-[αAllylPro]D[tBuAla][B5(3)]D[Phe(3-COOH)]QAFV[PyrS2(4)][3Thi][Phe(3-Cl)]A-NH2 (staple 1-4, 4-11; reading uncertain) [I-2225]

- NanoBRET Abs IC50 (B-cat-Halo): 10.6 µM
Binder: Ac-[αAllylPro]D[tBuAla][B5(3)]D[Phe(3-COOH)]AAFL[PyrS2″][2F3MeF][Phe(3-Cl)]S-NH2 (staple 1-4, 4-11) [I-2226]

- NanoBRET Abs IC50 (B-cat-Halo): 6.3 µM
Binder: Ac-[αAllylPro]D[tBuAla][B5(3)]D[Phe(3-COOH)]QAFL[PyrS2″][2F3MeF][Phe(3-Cl)]A-NH2 (staple 1-4, 4-11) [I-2227]

- NanoBRET Abs IC50 (B-cat-Halo): > 20 µM
Binder: Ac-[αAllylPro]D[tBuAla][B5(3)]D[(NdiMeButC)GA]AAFL[PyrS2″][3Thi][Bta]Q-NH2 (staple 1-4, 4-11) [I-2233]

- NanoBRET Abs IC50 (B-cat-Halo): > 20 µM
Binder: Ac-[αAllylPro]D[tBuAla][B5(22)]D[(Me2NPr)GA]AAFL[PyrS2][3Thi][Bta]Q-NH2 (staple 1-4, 4-11) [I-2234]

- NanoBRET Abs IC50 (B-cat-Halo): > 20 µM
Binder: Ac-[αAllylPro]D[tBuAla][B5(22)]D[(4AcMePip)GA]AAFL[PyrS2][3Thi][Bta]Q-NH2 (staple 1-4, 4-11) [I-2235]
